For four molecules, % displacement results are on record in patent US20240165282A1, “CONFORMATIONAL CONSTRAINED SOMATOSTATIN RECEPTOR 3 PEPTIDE LIGANDS AND THEIR CONJUGATES AND USES THEREOF” (STARGET PHARMA LTD., priority 2021, published 2024).

*1 amine or outer side, *2 acyl side, *3 side chain or, on linkers, in order; H or OH if unused. Bridges are numbered along the chain shown (N, C = ends). [ ]: non-standard residue; d: D form. The star is where a group is joined. DOTA = O=C(O)CN1CCN(CC(=O)O)CCN(CC(=O)*)CCN(CC(=O)O)CC1; N(2-mercaptoethyl)Gly = O=C(CN(CCS[*:3])[*:1])[*:2]; Orn = NCCC[C@H](N)C(=O)O

Common to all, as to test: 125I-Tyr11-SRIF-14 displacement
Assay [1] has as its target human cloned somatostatin receptor 1 (human) (UniProt P30872).
The target of assay [2] is human cloned somatostatin receptor 2 (human) (UniProt P30874).
Chain of human cloned somatostatin receptor 2 (human) (P30874 whole entry): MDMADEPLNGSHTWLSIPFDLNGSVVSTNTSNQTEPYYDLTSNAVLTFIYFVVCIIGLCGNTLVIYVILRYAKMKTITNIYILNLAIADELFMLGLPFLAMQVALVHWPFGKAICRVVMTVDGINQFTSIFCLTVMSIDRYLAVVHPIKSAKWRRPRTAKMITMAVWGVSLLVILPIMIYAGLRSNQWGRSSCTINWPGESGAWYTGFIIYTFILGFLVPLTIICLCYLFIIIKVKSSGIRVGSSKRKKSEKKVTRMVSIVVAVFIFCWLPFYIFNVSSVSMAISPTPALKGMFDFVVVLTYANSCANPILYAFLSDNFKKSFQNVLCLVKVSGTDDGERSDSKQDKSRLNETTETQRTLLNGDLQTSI
Assay [3] concerns the target human cloned somatostatin receptor 3 (human) (UniProt P32745).
Assay [4] addresses human cloned somatostatin receptor 4 (human) (UniProt P31391).
The target of assay [5] is human cloned somatostatin receptor 5 (human) (UniProt P35346).
Chain of human cloned somatostatin receptor 5 (human) (P35346 whole entry): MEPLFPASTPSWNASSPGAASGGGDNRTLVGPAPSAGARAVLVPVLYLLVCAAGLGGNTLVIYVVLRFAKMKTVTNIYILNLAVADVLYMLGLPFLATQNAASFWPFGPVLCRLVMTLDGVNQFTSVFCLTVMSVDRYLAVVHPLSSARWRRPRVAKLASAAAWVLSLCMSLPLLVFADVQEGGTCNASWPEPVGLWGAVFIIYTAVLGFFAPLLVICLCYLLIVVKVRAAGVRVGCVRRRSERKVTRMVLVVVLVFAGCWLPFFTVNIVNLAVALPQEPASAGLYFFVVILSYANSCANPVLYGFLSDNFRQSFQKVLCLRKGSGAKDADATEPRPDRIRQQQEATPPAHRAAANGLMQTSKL

Chain of human cloned somatostatin receptor 3 (human) (P32745 whole entry): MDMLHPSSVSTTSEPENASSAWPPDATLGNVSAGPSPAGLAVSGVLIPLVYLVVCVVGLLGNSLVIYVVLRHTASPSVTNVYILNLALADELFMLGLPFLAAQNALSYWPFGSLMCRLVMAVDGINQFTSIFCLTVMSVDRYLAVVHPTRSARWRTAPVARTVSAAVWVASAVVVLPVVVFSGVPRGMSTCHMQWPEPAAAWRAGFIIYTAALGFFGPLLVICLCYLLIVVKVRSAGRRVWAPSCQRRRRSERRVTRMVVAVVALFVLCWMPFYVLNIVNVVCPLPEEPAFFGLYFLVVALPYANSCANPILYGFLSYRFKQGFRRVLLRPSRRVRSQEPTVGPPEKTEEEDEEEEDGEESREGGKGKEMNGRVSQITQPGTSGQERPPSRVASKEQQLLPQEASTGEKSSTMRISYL
Chain of human cloned somatostatin receptor 4 (human) (P31391 whole entry): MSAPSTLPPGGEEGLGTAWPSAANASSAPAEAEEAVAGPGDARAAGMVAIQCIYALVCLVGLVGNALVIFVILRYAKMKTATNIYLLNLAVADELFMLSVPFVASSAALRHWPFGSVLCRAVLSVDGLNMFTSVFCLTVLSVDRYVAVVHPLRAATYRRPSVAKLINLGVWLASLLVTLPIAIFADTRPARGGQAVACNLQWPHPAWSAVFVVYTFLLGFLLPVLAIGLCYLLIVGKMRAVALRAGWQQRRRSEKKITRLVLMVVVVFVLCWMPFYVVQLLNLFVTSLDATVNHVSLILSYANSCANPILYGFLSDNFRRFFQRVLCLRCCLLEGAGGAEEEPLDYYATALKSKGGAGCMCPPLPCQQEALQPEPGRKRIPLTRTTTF
Chain of human cloned somatostatin receptor 1 (human) (P30872 whole entry): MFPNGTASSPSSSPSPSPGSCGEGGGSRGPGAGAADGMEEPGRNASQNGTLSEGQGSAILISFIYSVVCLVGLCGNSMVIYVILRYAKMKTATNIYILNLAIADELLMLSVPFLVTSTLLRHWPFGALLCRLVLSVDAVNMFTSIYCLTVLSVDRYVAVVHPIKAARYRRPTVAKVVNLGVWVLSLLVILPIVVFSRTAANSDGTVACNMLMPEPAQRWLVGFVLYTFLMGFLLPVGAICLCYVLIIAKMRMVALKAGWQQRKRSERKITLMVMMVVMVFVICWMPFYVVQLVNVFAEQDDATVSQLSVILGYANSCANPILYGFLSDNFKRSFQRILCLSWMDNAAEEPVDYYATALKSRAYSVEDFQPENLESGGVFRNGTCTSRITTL

B1: SEQ ID NO: 20 (peptide)
peptide: {DOTA}-F[dF]RCF[dW]KTF[N(2-mercaptoethyl)Gly]-NH2
modifications: disulfide 4-10
SMILES: C[C@@H](O)[C@@H]1NC(=O)[C@H](CCCCN)NC(=O)[C@@H](Cc2c[nH]c3ccccc23)NC(=O)[C@H](Cc2ccccc2)NC(=O)[C@@H](NC(=O)[C@H](CCCNC(=N)N)NC(=O)[C@@H](Cc2ccccc2)NC(=O)[C@H](Cc2ccccc2)NC(=O)CN2CCN(CC(=O)O)CCN(CC(=O)O)CCN(CC(=O)O)CC2)CSSCCN(CC(N)=O)C(=O)[C@H](Cc2ccccc2)NC1=O
As for B1, the % displacement at 1 nM was 8% in assay [1]; 0% in assay [2]; 66% in assay [3]; 0% in assay [4]; 0% in assay [5]. For the same molecule, the % displacement at 10 nM in assay [1] turned out to be 14%; in assay [2], 2%; in assay [3], 95%; in assay [4], 0%; in assay [5], 0%.

B2: SEQ ID NO: 22 (peptide)
peptide: {DOTA}-[dF]EE[Orn]CF[dW]KTF[N(2-mercaptoethyl)Gly]-NH2
modifications: disulfide 5-11
SMILES: C[C@@H](O)[C@@H]1NC(=O)[C@H](CCCCN)NC(=O)[C@@H](Cc2c[nH]c3ccccc23)NC(=O)[C@H](Cc2ccccc2)NC(=O)[C@@H](NC(=O)[C@H](CCCN)NC(=O)[C@H](CCC(=O)O)NC(=O)[C@H](CCC(=O)O)NC(=O)[C@@H](Cc2ccccc2)NC(=O)CN2CCN(CC(=O)O)CCN(CC(=O)O)CCN(CC(=O)O)CC2)CSSCCN(CC(N)=O)C(=O)[C@H](Cc2ccccc2)NC1=O
In the case of B2, the % displacement at 1 nM in assay [1] was 8%; in assay [2] it was 0%; in assay [3] it was 0%; in assay [4], 0%; in assay [5], 0%. Besides, the % displacement at 10 nM in assay [1] came to 7%; in assay [2] it was 0%; in assay [3], 49%; in assay [4], 3%; in assay [5] it was 0%.

Regarding {DOTA}-[dF][Orn]CF[dW]KTF[N(2-mercaptoethyl)Gly]-NH2 (disulfide 3-9) [SEQ ID NO: 21], the % displacement at 1 nM amounted to 23% in assay [1]; 0% in assay [2]; 59% in assay [3]; 9% in assay [4]; 0% in assay [5]. The % displacement at 10 nM came to 22% in assay [1]; 2% in assay [2]; 93% in assay [3]; 9% in assay [4]; 0% in assay [5].

B3: SEQ ID NO: 23 (peptide)
peptide: {DOTA}-[dF]E[Orn]CF[dW]KTF[N(2-mercaptoethyl)Gly]-NH2
modifications: disulfide 4-10
SMILES: C[C@@H](O)[C@@H]1NC(=O)[C@H](CCCCN)NC(=O)[C@@H](Cc2c[nH]c3ccccc23)NC(=O)[C@H](Cc2ccccc2)NC(=O)[C@@H](NC(=O)[C@H](CCCN)NC(=O)[C@H](CCC(=O)O)NC(=O)[C@@H](Cc2ccccc2)NC(=O)CN2CCN(CC(=O)O)CCN(CC(=O)O)CCN(CC(=O)O)CC2)CSSCCN(CC(N)=O)C(=O)[C@H](Cc2ccccc2)NC1=O
Take B3: the % displacement at 1 nM was 4% in assay [1]; 0% in assay [2]; 19% in assay [3]; 0% in assay [4]; 0% in assay [5]. Also, the % displacement at 10 nM in assay [1] stood at 6%; in assay [2], 0%; in assay [3], 56%; in assay [4], 0%; in assay [5], 0%.
